Assay [1] concerns the target wild-type SARS-CoV-2 spike without stabilizing modifications (on cells or pseudovirus) (SARS-CoV-2) (UniProt P0DTC2). In words: cell-based or functional assay.
Assay [2] deals with SARS-CoV spike without stabilizing modifications on pseudovirus (SARS-CoV) (UniProt P59594). In words: cell-based or functional assay.
Assay [3] has as its target SARS-CoV-2 HexaPro spike (SARS-CoV-2) (UniProt P0DTC2).

For orientation: Kd means the constant that tells how readily two partners part at equilibrium. A low value points to tighter binding.

Values joined by “and” are separate entries in the source; they are usually repeats but may differ in a detail not shown here. Identical values can stand only once.

With “isotype control antibody with irrelevant binding”, the Pseudovirus IC50 in assay [1] and in assay [2] was > 5000 nM each time.
In the case of antibody S309 (Pinto et al., 2020), the Pseudovirus IC50 in assay [1] is 1 nM; in assay [2], 0.5 nM. The Kd in assay [3] is 18 nM and 24 nM.

Source of the values: US20240294611A1.
